Laboratory results as given in the nanobody polyreactivity screen of Harvey et al. (2022).

Test: yeast display, Sf9 membrane polyspecificity reagent, FACS + sequencing; frameworks hold sequencing errors
Method in brief: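 Galactose-induced (36–48 hours) yeast carrying a synthetic nanobody display library were exposed to 10% biotinylated, detergent-solubilized Sf9 membrane reagent at 4 °C for 1 hour. FACS followed streptavidin microbead enrichment, using low and high (top ~1%) gates for expression (anti-HA) and reagent binding (streptavidin). Colony PCR, MiSeq 2 × 250 sequencing and CDR-length filtering followed. Labels for polyreactivity reflect the gate of origin.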

| Sequence | polyreactivity (PSR sort gate) |
| --- | --- |
| QVQLVESGGGLVQAGGSLRLSCAASGYIFGRYAMGWYRQAPGKERELVAAISSTGDSTYYADSVKGRFTISRDNAKNTVYLQMNSLKPEDTAVYYCNAVVRRYSYGRYYYWGQGTQVTVSS | high polyreactivity |
| QVQLVESGGGLVQAGGSLRLSCAASGYIFGYNAMGWYRQAPGKERELVAAINYSGTRTYYADSVKGRFTISRDNAKNTVYLQKNSLKPEDTAVYYCNAVGQLQYVSSDDYWGQGTQVTVSS | high polyreactivity |
| QVQLVESGGGLVQAGGSLRLSCAASGYIFGYNTMGWYRQAPGKERELVATINWRGSRTYYADSVKARFTISLDNAKNTVYLQMNSLKPEDTAVYYCNADHQFRSSVSGDHDYWGQGTQVTVSS | high polyreactivity |
| QVQLVESGGGLVQAGGSLRLSCAASGYIFIGYAMGWYRQAPGTERELVATITSGGSTNYADSVKGRFTISRDNAKNTVYLQMNSLNPEETAVYNCAAGRGRYCYSWRYLYAIFDYWGQGTQVTVSS | low polyreactivity |
| QVQLVESGGGLVQAGGSLRLSCAASGYIFIVNAMGSYRQAPGKERELVAAITDRGGSTYYADSVKGRFTISRDNAKNTVYLQMNSLKPEVTAVYYCAAELVHRLWYRDVHFDYWGQGTQVTVSS | low polyreactivity |
| QVQLVESGGGLVQAGGSLRLSCAASGYIFKHYAMGWYIQAPGKERELVAAITSGGRTNYADSVKGRFTISRDNAKNTVFLQMNSLIPEDTAVYYCAARRYRYFDGTVPLDYWGQGTLVTVSS | high polyreactivity |
| QVQLVESGGGLVQAGGSLRLSCAASGYIFKNYAMGWYRQAPGKERELVAAITRRGASTYYADSVKGRFTISRDNAKNTVYLQMNSLKPEDTAVYYCAAYPWPPGEYDYWGQGTQVTVSS | low polyreactivity |
| QVQLVESGGGLVQAGGSLRLSCAASGYIFKVNSMGWYRQAPGKERELVADISRNSGSTRYADSVKGRFTISRDNAKNTVYLQMNSLKPDDTAVYYFAADGRYWVKPGSPWDRSRYDYWGQGTQVTVSS | low polyreactivity |
| QVQLVESGGGLVQAGGSLRLSCAASGYIFKYNAMGWYRQAPGKERELVAAISSGGSTYYADSVKGRFTISRDNAKNTVYLQMNSLKPEDTAVYYCAARGVRSARIYYYWGQGTQVTVSS | high polyreactivity |
| QVQLVESGGGLVQAGGSLRLSCAASGYIFKYYAMGWYRQAPGKERELVTAIRSNDDSTYYADSVKGRFTISRDTAKNTVYLQMNSLKPEDTAVYYCAAATYGTRLRRYYYWGQGTQVTVSS | high polyreactivity |
| QVQLVESGGGLVQAGGSLRLSCAASGYIFLAYAKGWYRQAPGKERELVADNTYADSVKGRFTISRDNAKNTVYLKMNSMKPEDTAVYYCNADEVYDEYSYDYWGHGTQVTVSS | low polyreactivity |
| QVQLVESGGGLVQAGGSLRLSCAASGYIFLGYDMVWYRQAPGKERELVAVINWSGGRTRYADSVKGRFTISRDNAKNTVYLQMNSLKPEDTAVYYCAAERSITYDYWGQGSQVTVSS | high polyreactivity |
| QVQLVESGGGLVQAGGSLRLSCAASGYIFLRNSLGWYRQAPGKERELVAAIRRTGGSTYYADSVKGRFTISRDNAKNTVYLQMNSLKPEDTAVYYCAKRSYTGYEYWGQGTQVTVSS | low polyreactivity |
| QVQLVESGGGLVQAGGSLRLSCAASGYIFNPNAMGWYRQAPGKERELVAAITWSGGNTYYADSVKGRFTISRDNAKNTVYLQMNSLKPEDTAVFYCNAEYRWPYWGQWYFKGYDYWGQGTQVTVSS | low polyreactivity |
| QVQLVESGGGLVQAGGSLRLSCAASGYIFNYAIGWYRQAPRKESELVAAITWDGSSTNYADSVKGRFTISRDNAKNTVYLQMKSLKPEDTAVYYCNARGRWTFNGFWFTYNYWGQGTQVTVSS | high polyreactivity |
| QVQLVESGGGLVQAGGSLRLSCAASGYIFPDYPMGWYRPATGKERELVAAFTSSGGRTYYADSVKGRFTISRDNAKNTVYLQMNSLKPEDTAVYYCAAVSVLKKTFDYWGQGTQVTVSS | high polyreactivity |

| Sequence | polyreactivity (PSR sort gate) |
| --- | --- |
| QVQLVESGGGLVQAGGSLRLSCAASGYIFPPYAMGWYRQAPGKERELVATMTGIGGSTDYADSVKGRFTISRDNAKNTVYLQMNSLKPEDTAVYYCAARRDGYGTHYDYWGQGTQVTVSS | low polyreactivity |
| QVQLVESGGGLVQAGGSLRLSCAASGYIFPYYPMGWYRQAPGKQRELVAAISRSGGGTYYADSVKGRFTISRDIANNTVYLQMNSLKPEDTALYYCNRRSGHVHEYDYWGQGTQVTVSS | low polyreactivity |
| QVQLVESGGGLVQAGGSLRLSCAASGYIFQDYAMGWYRPAPGKERELVAAITSGGSTYYADSVKGRFTISRDNAKNTVYLQMNSLKPEDTAVYYCAAVGYYSVPGYSSRRYYYWGQGTQVTVSS | high polyreactivity |
| QVQLVESGGGLVQAGGSLRLSCAASGYIFQRYTMGWYRQAPGKERELVAAITRSGGRTYYADSVKGRFTISRDNAKNTVYLQMNSLKPEDTAVYYCAVDYRTRGDYWGQGTQVTVSS | high polyreactivity |
| QVQLVESGGGLVQAGGSLRLSCAASGYIFQTYAMGWYRQAPGKEREFVAAITSGAGRTSYADSVKGRFTISRDNAKNTVYLQMNSLKPEDTAVYYCAARWRYQLSGSRLSYGKYDYWGQGTQVTVSS | high polyreactivity |
| QVQLVESGGGLVQAGGSLRLSCAASGYIFQYYAKGWYRQAPGKERELVAAITGGGSTKYADSVKGRFTISRDNAKHTVYLQMNSLKPEDTAVYYCAKRYPSWFNYWGQGTQVTVSS | high polyreactivity |
| QVQLVESGGGLVQAGGSLRLSCAASGYIFRFNAMGWYRQAPGKERELVAAISRSGGRTYYADSVKGRFTISRDNAKNTVYLQMNSLKPEDTAVYYCAAVRYKGGGNQPYGYWGQGTQVTVSS | high polyreactivity |
| QVQLVESGGGLVQAGGSLRLSCAASGYIFRFNAMGWYRQAPGKERELVAVITSGARTYYADSVKGRFTISRDNAKNTFYLLMNSLKPEDTAVYYCNAGARRYLYDYWGQGTQVTVSS | low polyreactivity |
| QVQLVESGGGLVQAGGSLRLSCAASGYIFRGYVMGWYRQAPGKERELVAAITSRGDSTYYADSVKGRFTISRDNAKNTVYLQMNSLKPEDTAVYYCNAVHYYVEYDYWGQGTQVTVSS | high polyreactivity |
| QVQLVESGGGLVQAGGSLRLSCAASGYIFRRYAMGWYRQAPGKERELVAAISFSGGSTYYADSVKGRFTISRDNAKNTVYLQMNSLKPEDTAVYYCAALSLLRYDYWGQGTQVTVSS | high polyreactivity |
| QVQLVESGGGLVQAGGSLRLSCAASGYIFRSYVMGWYRQAPGKERELVAAISVSGGRTYYADSVKGRFTMSRDNAKNTVYLQMNSLIPEDTAVYYCAAYLGRRGQEMDYWGQGTQVTVSS | high polyreactivity |
| QVQLVESGGGLVQAGGSLRLSCAASGYIFRYYAMGWYREAPGKERELVARINSGGSTYADSVKGRFTISRDNAKNTVYLQMNSLKPEDTAVYYCAADLAKYRSKLGYWGQVTQVTVSS | high polyreactivity |
| QVQLVESGGGLVQAGGSLRLSCAASGYIFRYYAMGWYRQAPGKERELVAAISRSGGNTYYADSVKGRFTISRDNAKNTVYLQMNSLKPEDTAVYYCAVVLSTYSYADYDYWGQGTQVTVSS | high polyreactivity |
| QVQLVESGGGLVQAGGSLRLSCAASGYIFSDNTMGWYRQAPGKERELVAVITSGTSTSYADSVKGRFTISRDNAKNTVYLQMNSLKPEDTAVYYAARTGQYKTYGEYDYWGQGTQVTVSS | low polyreactivity |
| QVQLVESGGGLVQAGGSLRLSCAASGYIFSYNAMGWYRQAPGKERELVAAMTASGGGTYYADSVKGRFTISRDNAKNTVYLQMNSLKPEDTAVYYCAADFNDHYYWYGQDYDYWGQGTQVTVSS | low polyreactivity |
| QVQLVESGGGLVQAGGSLRLSCAASGYIFSYYAMGWYRQAPGKERELVAAINRSGGRTYYADSVKGRFTISRDNAKNTVYLQMNSLKPEDTAVYYCAADQLSDEYDYWGQGTQVTVSS | high polyreactivity |
